The text below walks through data of article PMC6497955, “Development and structural characterization of an engineered multi-copper oxidase reporter of protein–protein interactions” (The Journal of Biological Chemistry, 2019).

Numbering of substitutions follows the chain as printed.

Sequences and labels used below:
T1: CueO (M358I) (E. coli, UniProt P36649 29-516, M358I)
T1 construct: signal peptide in the construct (primer 1 begins at the precursor's ATG); E. coli multi-copper oxidase CueO, gene amplified from JM109 genomic DNA with primers 1 and 2; The M358I mutation arose during cloning and is present in all variants; The signal peptide may be cut in E. coli (surmise; the solved variants are modelled from residue 29 or 30); source: E. coli BL21(DE3), purified (HisTrap)
T1 sequence (looked up): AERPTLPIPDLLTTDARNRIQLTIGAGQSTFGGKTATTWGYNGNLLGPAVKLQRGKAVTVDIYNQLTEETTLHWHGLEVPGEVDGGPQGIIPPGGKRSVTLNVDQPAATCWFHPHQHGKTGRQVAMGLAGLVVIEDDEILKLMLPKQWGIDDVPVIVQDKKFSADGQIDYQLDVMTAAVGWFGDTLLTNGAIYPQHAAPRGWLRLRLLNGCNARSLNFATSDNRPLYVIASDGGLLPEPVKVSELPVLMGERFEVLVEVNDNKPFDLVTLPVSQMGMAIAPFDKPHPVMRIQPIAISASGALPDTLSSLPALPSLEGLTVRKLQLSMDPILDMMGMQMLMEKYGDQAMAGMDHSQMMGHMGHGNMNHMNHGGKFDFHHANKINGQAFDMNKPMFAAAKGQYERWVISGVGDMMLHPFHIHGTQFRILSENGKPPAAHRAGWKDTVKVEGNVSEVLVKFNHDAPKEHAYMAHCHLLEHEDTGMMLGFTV

T2: CueO-12.1 (E. coli, UniProt P36649 29-516, M358I | 12.1 peptide replaced residues 384–394 (translated from primers 9 and …))
T2 construct: signal peptide in the construct; source: E. coli BL21(DE3), purified (HisTrap)
T2 sequence (looked up): T1 sequence (looked up) with M357P, G358R, H359F, G361D, H362Y, G363W, N364E, M365G, N366L, H367N

T3: CueO-PMI (E. coli, UniProt P36649 29-516, M358I | PMI peptide insert (translated from primers 13 and 14, Table 3: 385-395 …))
T3 construct: signal peptide in the construct; source: E. coli BL21(DE3), purified (HisTrap)
T3 sequence (looked up): T1 sequence (looked up) with M357T, G358S, H359F, M360A, G361E, H362Y, G363W, M365L, N366L, H367S

B1: CueO-PM2 (designed binder)
chain: AERPTLPIPDLLTTDARNRIQLTIGAGQSTFGGKTATTWGYNGNLLGPAVKLQRGKAVTVDIYNQLTEETTLHWHGLEVPGEVDGGPQGIIPPGGKRSVTLNVDQPAATCWFHPHQHGKTGRQVAMGLAGLVVIEDDEILKLMLPKQWGIDDVPVIVQDKKFSADGQIDYQLDVMTAAVGWFGDTLLTNGAIYPQHAAPRGWLRLRLLNGCNARSLNFATSDNRPLYVIASDGGLLPEPVKVSELPVLMGERFEVLVEVNDNKPFDLVTLPVSQMGMAIAPFDKPHPVMRIQPIAISASGALPDTLSSLPALPSLEGLTVRKLQLSMDPILDMMGMQMLMEKYGDQAMAGMDHSQMTSFAEYWALLSMNHGGKFDFHHANKINGQAFDMNKPMFAAAKGQYERWVISGVGDMMLHPFHIHGTQFRILSENGKPPAAHRAGWKDTVKVEGNVSEVLVKFNHDAPKEHAYMAHCHLLEHEDTGMMLGFTV
B2: MDM2(6–125) (domain or fragment, UniProt Q00987 6-125, looked up)
chain: MSVPTDGAVTTSQIPASEQETLVRPKPLLLKLLKSVGAQKDTYTMKEVLFYLGQYIMTKRLYDEKQQHIVYCSNDLLGDLFGVPSFSVKEHRKIYTMIYRNLVVVNQQESSDSGTSVSEN

The assay “MDM2(6–125)” deals with B2. Nature of the assay: cell-based or functional assay.
In a further assay the target is T1, CueO (M358I). Briefly: fluorescence polarisation; competitive fluorescence anisotropy; CueO proteins titrated against 150 nM MDM2(6–125) and 50 nM FITC-labeled 12.1 peptide; PBS, 3% DMSO, 0.1% Tween 20; apparent Kd. Conditions: both partners purified. (Fluorescence polarisation rises when a labelled molecule tumbles more slowly, as on binding a larger partner.)
A further assay deals with T2, CueO-12.1. The assay is described as above. Particulars: both partners purified.
In another assay the target is T3, CueO-PMI. The assay is described as above. Conditions: both partners purified.
The assay “CueO-PM2” concerns the target B1. The assay is described as above. Conditions: both partners purified.

For B1, the “kcat of syringaldazine oxidation by CueO-PM2 preincubated with 10 μM MDM2, against CueO-PM2 alone” value with MDM2(6–125) was around 1.6 fold.

Take B2: the Kd was 44300 nM in the assay with CueO (M358I), 722 nM with CueO-12.1, 28 nM in the assay with CueO-PMI and 25 nM with CueO-PM2.
